Assay results: patent US20240374746A1, “SIRP-ALPHA ANTIBODIES AND CONJUGATES” (Tallac Therapeutics, Inc., priority 2021, published 2024)

B1: conjugate with the mIgG2a Fc: anti-SIRP-α antibody, heavy chain SEQ ID NO:90 and light chain SEQ ID NO:111, conjugated to mouse CpG oligo 4523 (SEQ ID NO:121) (conjugate)
heavy: DVQLVESGGGVVRPGESLRLSCAASGFTFSSNAMSWVRQAPGKGLEWLAGISAGGSDTYYPASVKGRFTISRDNSKNTLYLQMNTLTAEDTAVYYCARETWNHLFDYWGLGTLVTVSSAKTTAPSVYPLAPVCGDTTGSSVTLGCLVKGYFPEPVTLTWNSGSLSSGVHTFPAVLQSDLYTLSSSVTVTSSTWPSQSITCNVAHPASSTKVDKKIEPRGPTIKPCPPCKCPAPNLLGGPSVFIFPPKIKDVLMISLSPIVTCVVVDVSEDDPDVQISWFVNNVEVHTAQTQTHREDYNSTLRVVSALPIQHQDWMSGKEFKCKVNNKDLPAPIERTISKPKGSVRAPQVYVLPPPEEEMTKKQVTLTCMVTDFMPEDIYVEWTNNGKTELNYKNTEPVLDSDGSYFMYSKLRVEKKNWVERNSYSCSVVHEGLHNHHTTKSFSRTPGRPQGFGPP
light: ALTQPASVSANPGETVKIACSGGDYYSYYYGWYQQKAPGSALVTVIYSDDKRPSDIPSRFSGSASGSTATLTITGVRAEDEAVYYCGGYDYSTYANAFGAGTTLTVLGQPKSSPSVTLFPPSSEELETNKATLVCTITDFYPGVVTVDWKVDGTPVTQGMETTQPSKQSNNKYMASSYLTLTARAWERHSSYSCQVTHEGHTVEKSLSRADCS
DNA: ttcgtcgtgacgtt
modifications: antibody conjugated to CpG oligonucleotide; modified_base 2 OTHER; iodo-uridine; modified_base 1..5 OTHER; phosphorothioate linkages; misc_feature 5^6 phosphotriester linker; modified_base 6..14 OTHER; misc_feature 14 3' spacer C3
B2: anti-mSIRP-α antibody conjugated with murine reactive mT-CpG: anti-SIRP-α mIgG1, heavy chain SEQ ID NO:91 and light chain SEQ ID NO:111, conjugated to mouse CpG oligo 4523 (SEQ ID NO:121) (conjugate)
heavy: DVQLVESGGGVVRPGESLRLSCAASGFTFSSNAMSWVRQAPGKGLEWLAGISAGGSDTYYPASVKGRFTISRDNSKNTLYLQMNTLTAEDTAVYYCARETWNHLFDYWGLGTLVTVSSAKTTPPSVYPLAPGSAAQTNSMVTLGCLVKGYFPEPVTVTWNSGSLSSGVHTFPAVLQSDLYTLSSSVTVPSSTWPSETVTCNVAHPASSTKVDKKIVPRDCGCKPCICTVPEVSSVFIFPPKPKDVLTITLTPKVTCVVVDISKDDPEVQFSWFVDDVEVHTAQTQPREEQFNSTFRSVSELPIMHQDWLNGKEFKCRVNSAAFPAPIEKTISKTKGRPKAPQVYTIPPPKEQMAKDKVSLTCMITDFFPEDITVEWQWNGQPAENYKNTQPIMDTDGSYFIYSKLNVQKSNWEAGNTFTCSVLHEGLHNHHTEKSLSHSPGRPQGFGPP
light: B1 light
DNA: ttcgtcgtgacgtt
modifications: antibody conjugated to CpG oligonucleotide; modified_base 2 OTHER; iodo-uridine; modified_base 1..5 OTHER; phosphorothioate linkages; misc_feature 5^6 phosphotriester linker; modified_base 6..14 OTHER; misc_feature 14 3' spacer C3

Columns and labels:
[1] = tested on: RENCA renal carcinoma cells; assay: RENCA syngeneic tumor model, mIgG2a versus mIgG1 Fc conjugates; format: in vivo, mouse; details: BALB/c mice, 10 mg/kg i.p., 3 doses every 3 days, compared to conjugate with the mIgG1 Fc domain
Source text: Experiments using anti-SIRP-α antibody-CpG oligonucleotide conjugate used the mouse CpG oligo 4523 (SEQ ID NO: 121) conjugated to anti-SIRP-α antibody comprising a heavy chain comprising the sequence of […] (SEQ ID NO:90) for mIgG2a or […] (SEQ ID NO:91) for mIgG1 and a light chain comprising the sequence of […] (SEQ ID NO:111). The sequence of the 4523 murine CpG oligonucleotide is tucgtcgtgacgtt-c3, where lower case indicates phosphothioate linkages, bold indicates iodo-uridine, and underlining indicates phosphotriester linker (SEQ ID NO:121). RENCA renal carcinoma cells (ATCC) were cultured in Complete RPMI 1640 (RPMI 1640+10% FBS (Gibco)) at 37° C. and 5% CO2. Cells were detached with Trypsin 0.25% (Gibco) and washed twice with RPMI 1640 (Gibco). Cells were resuspended at 20E6/mL in RPMI 1640 and kept on ice until use. 100 uL of suspended cells were subcutaneously implanted into the right flank of 6-week-old female BALB/c mice (Charles River). Tumor size was measured and recorded twice a week with calipers starting 9 days post implantation until duration of the study, approximately 35 days later. Tumor volume was calculated using the following formula: (length×width×width)/2. Once tumors reached on average 75 mm^3, […], mice were randomized by tumor size and treatments were initiated. […]

[2] = tested on: RENCA renal carcinoma cells; assay: RENCA mouse syngeneic tumor model refractory to PD-1; format: in vivo; details: 10 mg/kg i.p. three times, three days apart, single agent
Protocol: RENCA renal carcinoma cells line (ATCC) was cultured in Complete RPMI (RPMI, 10% FBS, 1× Pen/Strep, 1× Glutamax) at 37° C. and 5% CO2. Cells were detached with Trypsin 0.25% (Gibco) and washed twice with RPMI 1640 (Gibco). Cells were resuspended at 20E6/mL in RPMI 1640 and kept on ice until use. 100 μL of suspended cells were subcutaneously implanted into the right flank of 6-week-old female BALB/c mice (Charles River). Tumor size was measured and recorded twice a week with calipers starting 9 days post implantation until duration of the study, approximately 27 days later. Tumor volume was calculated using the following formula: (length×width×width)/2. Once tumors reached on average 56 mm^3, approximately 9 days post implantation, mice were randomized by tumor size and treatments were initiated. Anti-mSIRP-α conjugated to mT-CpG (heavy chain comprising the sequence of SEQ ID NO:91 and light chain comprising the sequence of SEQ ID NO:111, conjugated to mouse CpG oligo 4523 (SEQ ID NO:121)) was administered intraperitoneally 3 doses every 3 days at 10 mg/kg. In the anti-PD-1 RMP1-14 (BioXcell) treated cohort, dosing was initiated on day 10 post-tumor implantation once tumors reached on average 52 mm. A total of 3 doses 3 days apart at 10 mg/kg were administrated.

[3] = tested on: MC38 overexpressing mouse SIRPα and parental MC38 colon carcinoma cells; assay: Mouse syngeneic MC38 model with SIRP-α-positive and SIRP-α-negative tumor cells; format: in vivo; details: 1 mg/kg i.p. twice, three days apart; MC38 overexpressing SIRP-α compared with parental MC38
Protocol: Parental MC38 colon carcinoma cells (ATCC) and MC38 overexpressing mouse SIRPα were cultured in Complete Dulbecco's Modified Eagle's Medium (Gibco) (DMEM, 10% FBS, 1% Pen/Strep, 1% Glutmax, 1% sodium pyruvate) at 37° C. and 5% CO2. Cells were detached with Trypsin 0.25% (Gibco) and washed twice with DMEM. Cells were resuspended at 20E6/mL in DMEM and kept on ice until use. 100 μL of suspended cells were subcutaneously implanted into the right flank of 6-week-old female C57/BL6 mice (Charles River). Tumor size was measured and recorded twice a week with calipers starting 4 days post implantation until duration of the study, approximately 17 days later. Tumor volume was calculated using the following formula: (length×width×width)/2. Once MC38 parental and MC38 SIRP-α tumors reached on average 94 mm^3 to 88 mm^3, respectively, approximately 4 days post implantation, mice were randomized by tumor size and treatments were initiated. The anti-SIRP-α mIgG1 conjugated to mTCpG (heavy chain comprising the sequence of SEQ ID NO:91 and light chain comprising the sequence of SEQ ID NO: 111, conjugated to mouse CpG oligo 4523 (SEQ ID NO: 121)) was administered intraperitoneally 2 doses every 3 days at 1 mg/kg.

[4] = tested on: CT26 mouse colon carcinoma cells; assay: CT26 mouse syngeneic tumor model, alone and in combination with anti-PD-1; format: in vivo
Protocol: CT26 mouse colon carcinoma cells (ATCC) were cultured in Complete RPMI (RPMI, 10% FBS, 1× Pen/Strep, 1× Glutamax) at 37° C. and 5% CO2. Once cells were 80% confluent, cells were detached with Trypsin 0.25% (Gibco) and washed twice with RPMI 1640 (Gibco). Cells were resuspended at 20E6/mL in RPMI 1640 and kept on ice until use. 100 μL of suspended cells were subcutaneously implanted into the right flank of 6 week old female BALB/c mice (Charles River). Tumor size was measured and recorded twice a week with calipers starting 7 days post implantation until duration of the study, approximately 27 days later. Tumor volume was estimated using the following formula: (length×width×width)/2. Once tumors reached 110 mm^3, approximately 9 days post implantation, mice were randomized by tumor size and treatments were initiated. Anti-mSIRP-α antibody-CpG oligonucleotide conjugate with a heavy chain comprising the sequence of SEQ ID NO:91 and a light chain comprising the sequence of SEQ ID NO: 111, conjugated to mouse CpG oligo 4523 (SEQ ID NO:121), […], 4 days apart, anti-PD-1 […] (BioXcell) at 10 mg/kg twice, 4 days apart as a single agent or in combination with anti-mSIRP-α antibody-CpG oligonucleotide conjugate for a total of two doses 4 days apart and anti-PD-1 twice, two days post anti-mSIRP-α antibody-CpG oligonucleotide conjugate.

[5] = tested on: B16-F10 melanoma cell line; assay: B16F10 mouse syngeneic tumor model, combination with anti-PD-L1; format: in vivo; details: 30 mg/kg i.p. in combination with anti-PD-L1 antibody 10 mg/kg, compared to either alone
Protocol: B16-F10 melanoma cell line (ATCC) was cultured in Complete Dulbecco's Modified Eagle's Medium (DMEM, 10% FBS, 1% Pen/Strep, 1% Glutamax, 1% Sodium Pyruvate) at 37° C. and 5% CO2. Cells were detached with Trypsin 0.25% (Gibco) and washed twice with DMEM (Gibco). Cells were resuspended at 6E6/mL in DMEM and kept on ice until use. 100 μL of suspended cells were subcutaneously implanted into the right flank of 6-week-old female C57BL/6 mice (Charles River). Tumor size was measured and recorded 2-3 times a week with calipers starting 7 days post-implantation until duration of the study, approximately 17 days later. Tumor volume was calculated using the following formula: (length×width×width)/2. Once tumors reached on average 55 mm^3, approximately 7 days post-implantation, mice were randomized by tumor size and treatments were initiated. The conjugates were administered intraperitoneally 2 doses every 3 days at 30 mg/kg. Anti-PD-L1 was administered intraperitoneally 2 doses every 3 days at 10 mg/kg. […] The anti-mSIRP-α antibody conjugate comprised murine reactive mT-CpG oligonucleotide (SEQ ID NO: 121) conjugated to an anti-SIRP-α antibody comprising a heavy chain comprising the sequence of SEQ ID NO:91 and a light chain comprising the sequence of SEQ ID NO:111. […]

Molecule | anti-tumor inhibition [1] | anti-tumor response [2] | anti-tumor activity [3] | tumor growth inhibition ([4]; 1 mg/kg i.p., single agent) | anti-tumor response ([4]; suboptimal dose 0.3 mg/kg in combination with anti-PD-1 antibody 10 mg/kg, compared to either alone) | anti-tumor response [5]
B1 | reduced anti-tumor inhibition |  |  |  |  | 
B2 |  | potent, single-agent anti-tumor response | superior anti-tumor activity | robust tumor growth inhibtion | enhanced anti-tumor response | enhanced anti-tumor response
